Data taken from paper PMC4676782.
Where two headings read alike, the source gives them in different places. One block for each molecule: values may come before it.

Tests used:
[1] = target: hCES1 S221A (catalytically inactive mutant) (human) (UniProt P23141); assay: SEC; HiLoad 16/60 Superdex 200, 200 mM NaCl, 20 mM Tris-HCl, pH 7.5; molecular weight estimated from globular protein standards
[2] = target: hCES1 S221A (catalytically inactive mutant) (human) (UniProt P23141); assay: AUC; sedimentation velocity, 20°C, 2, 1.0 and 0.5 mg/mL protein in 20 mM TrisHCl, pH 7.5, 200 mM NaCl, 40,000 rpm; c(S) analysis with SEDFIT
[3] = target: Human Carboxylesterase 1 (hCES1), wild type, glycosylated (human) (UniProt P23141); assay: SEC; HiLoad 16/60 Superdex 200, 200 mM NaCl, 20 mM Tris-HCl, pH 7.5; molecular weight estimated from globular protein standards
[4] = target: Human Carboxylesterase 1 (hCES1), wild type, glycosylated (human) (UniProt P23141); assay: AUC; sedimentation velocity, 20°C, 2, 1.0 and 0.5 mg/mL protein in 20 mM TrisHCl, pH 7.5, 200 mM NaCl, 40,000 rpm; c(S) analysis with SEDFIT
[5] = target: hCES1 N79Q (aglycosylated hCES1) (human) (UniProt P23141); assay: SEC; HiLoad 16/60 Superdex 200, 200 mM NaCl, 20 mM Tris-HCl, pH 7.5; molecular weight estimated from globular protein standards
[6] = target: hCES1 N79Q (aglycosylated hCES1) (human) (UniProt P23141); assay: AUC; sedimentation velocity, 20°C, 2, 1.0 and 0.5 mg/mL protein in 20 mM TrisHCl, pH 7.5, 200 mM NaCl, 40,000 rpm; c(S) analysis with SEDFIT
[7] = size exclusion chromatography; conditions: glycan lost; control: glycosylated hCES1
[8] = sedimentation velocity analytical ultracentrifugation; conditions: glycan lost; control: glycosylated hCES1
[9] = N-glycosylation at N79
[10] = crystal structure superposition, Cα rmsd; conditions: glycan lost; control: glycosylated hCES1 structure (5a7f)
[11] = 4-NPA kinetics, allosteric sigmoidal fit; conditions: glycan lost; control: glycosylated hCES1
[12] = 4-NPA hydrolysis, A405, specific activity; conditions: glycan lost; control: glycosylated hCES1

- stoichiometry N [1]: 3
- stoichiometry N [2]: 3
Molecule: hCES1 S221A (catalytically inactive mutant) (from UniProt P23141 18-567) (enzyme)

- stoichiometry N [3]: 3
- stoichiometry N [4]: 3
Molecule: Human Carboxylesterase 1 (hCES1), wild type, glycosylated (from UniProt P23141 18-567) (enzyme)

- stoichiometry N [5]: 3
- stoichiometry N [6]: 3
Molecule: hCES1 N79Q (aglycosylated hCES1) (from UniProt P23141 18-567) (enzyme)

B1: Human Carboxylesterase 1 (hCES1): N79Q (protein)
parent chain: MWLRAFILATLSASAAWGHPSSPPVVDTVHGKVLGKFVSLEGFAQPVAIFLGIPFAKPPLGPLRFTPPQPAEPWSFVKNATSYPPMCTQDPKAGQLLSELFTNRKENIPLKLSEDCLYLNIYTPADLTKKNRLPVMVWIHGGGLMVGAASTYDGLALAAHENVVVVTIQYRLGIWGFFSTGDEHSRGNWGHLDQVAALRWVQDNIASFGGNPGSVTIFGESAGGESVSVLVLSPLAKNLFHRAISESGVALTSVLVKKGDVKPLAEQIAITAGCKTTTSAVMVHCLRQKTEEELLETTLKMKFLSLDLQGDPRESQPLLGTVIDGMLLLKTPEELQAERNFHTVPYMVGINKQEFGWLIPMQLMSYPLSEGQLDQKTAMSLLWKSYPLVCIAKELIPEATEKYLGGTDDTVKKKDLFLDLIADVMFGVPSVIVARNHRDAGAPTYMYEFQYRPSFSSDMKPKTVIGDHGDELFSVFGAPFLKEGASEEEIRLSKMVMKFWANFARNGNPNGEGLPHWPEYNQKEGYLQIGANTQAAQKLKDKEVAFWTNLFAKKAVEKPPQTEHIEL
- oligomerisation [7]: no change
- oligomerisation [8]: no change
- enzymatic_activity [9]: no change, specific activity 73 (hCES1) vs 98 (N79Q) µmol min-1 μg-1; Vmax 9.25 +/- 1.30 vs 10.92 +/- 2.01 μMmin-1; h 1.46 vs 1.57
- expression_or_secretion [9]: no change, 39 mg/L (N79Q, transient HEK293T) vs 64 mg/L (hCES1, stable HEK293 Gnt1-/-)
- oligomerisation [9]: no change, trimer, apparent molecular weight 152 kDa
- structure_or_conformation [9]: no change, rmsd 0.47 Å (vs hCES1) and 0.3 Å (vs S221A) for all Cα atoms
- structure or conformation, other: rmsd to control [10]: 0.47 Å
- enzymatic_activity, other: Hill coefficient [11]: no change, 1.57 +/- 0.4 vs 1.46 +/- 0.26
- enzymatic_activity, other: Khalf [11]: no change, 1090 +/- 343.3 vs 1123 +/- 280.2
- enzymatic_activity, other: Vmax [11]: no change, 10.92 +/- 2.01 vs 9.25 +/- 1.30
- enzymatic_activity, other: specific activity [12]: no change, 98 vs 73, The purified aglycosylated enzyme was found to be more active than glycosylated hCES1
